Laboratory results reported in publication PMC3105425.

Biological target: truncated form of ribosomal protein L2 (E. coli) (UniProt P60422)
Assay: ELISA

DnaAΔ129 lacking the N-terminal 129 residues, sequence (P03004 130-467, stated change not applied): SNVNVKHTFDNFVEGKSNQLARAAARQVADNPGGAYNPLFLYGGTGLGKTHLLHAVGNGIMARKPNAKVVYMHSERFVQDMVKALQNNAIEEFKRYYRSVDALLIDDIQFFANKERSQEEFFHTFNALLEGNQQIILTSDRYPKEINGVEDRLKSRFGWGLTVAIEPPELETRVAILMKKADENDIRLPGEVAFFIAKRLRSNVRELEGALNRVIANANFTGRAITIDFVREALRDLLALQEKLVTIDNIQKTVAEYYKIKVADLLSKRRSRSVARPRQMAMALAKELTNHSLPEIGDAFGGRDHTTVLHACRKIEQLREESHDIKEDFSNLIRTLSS

fold reduction of the interaction against wild-type DnaA: 4 fold
Substance: DnaAΔ129 lacking the N-terminal 129 residues (from UniProt P03004 130-467) (domain or fragment)
